One test addresses T1, TBD-1 wt.
T1 construct: Fab; the heavy chain entry is VH-CH1; also called wild-type anti-TROP2 Fab (hRS7); TROP2 Fab
Briefly: competition ELISA: peptide titrated and pre-incubated with a constant concentration of TBD-1, then added to plate-bound biotinylated TROP2; blocked ligand TROP2 (2.m7).

The target in test [1] is T2, Human TROP2 ECD (31-274 AA), biotinylated (human, UniProt P09758 31-274, biotinylated (site not stated)).
T2 construct: also called tumor-associated calcium signal transducer 2; Human TROP2-biotin
T2 sequence: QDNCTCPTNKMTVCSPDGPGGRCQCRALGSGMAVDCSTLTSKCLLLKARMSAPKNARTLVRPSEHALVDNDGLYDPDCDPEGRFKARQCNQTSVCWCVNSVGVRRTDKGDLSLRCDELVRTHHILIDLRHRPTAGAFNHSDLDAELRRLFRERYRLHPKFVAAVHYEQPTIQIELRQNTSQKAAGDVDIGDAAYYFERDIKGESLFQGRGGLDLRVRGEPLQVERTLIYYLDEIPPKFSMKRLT
Briefly: ELISA on immobilized TROP2.

The next test has as its target T3, Human TROP2 Full length (human, UniProt P09758 31-323).
T3 sequence: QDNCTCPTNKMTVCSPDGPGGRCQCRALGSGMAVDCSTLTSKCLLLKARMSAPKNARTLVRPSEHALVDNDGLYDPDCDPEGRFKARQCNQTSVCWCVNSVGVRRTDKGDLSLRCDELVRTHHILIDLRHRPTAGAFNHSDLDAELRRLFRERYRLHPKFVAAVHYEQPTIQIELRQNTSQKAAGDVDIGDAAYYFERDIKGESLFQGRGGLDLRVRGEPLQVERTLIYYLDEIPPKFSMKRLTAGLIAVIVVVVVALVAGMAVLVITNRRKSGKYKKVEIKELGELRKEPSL
Briefly: cell-based or functional assay.

In another test the target is T4, Cyno TROP2 Full length (cynomolgus monkey, UniProt P09758 31-323 (human entry)).
T4 chain: T3 sequence with M32V, S63N, I200V, M262V, T268S
Briefly: cell-based or functional assay.

Test [2] addresses T2, Human TROP2 ECD (31-274 AA), …. Briefly: ELISA on immobilized TROP2. The source holds these as a separate data set. In general terms: An ELISA detects its analyte on a solid surface through an enzyme-linked reagent.
The target is the same in test [3]. Briefly: ELISA on immobilized TROP2. The source holds these as a separate data set.
For test [4] the target is unchanged. Briefly: ELISA on immobilized TROP2. The source holds these as a separate data set.
A further test has as its target T5, Peptide-65 (cysteine pairing not given here; also: biotinylated, site not given here).
T5 construct: mask peptide for the CD3 scFv
T5 peptide: QGCGTIADPEPHCW
Briefly: ELISA, TCE on captured biotin-peptide.

In test [5] the target is T6, Peptide-68 (cysteine pairing not given here; also: biotinylated, site not given here).
T6 construct: mask peptide for the CD3 scFv
T6 peptide: DWCWYSPDNDGLCD
Briefly: ELISA, TCE on captured biotin-peptide.

The target in test [6] is T7, Peptide-69 (cysteine pairing not given here; also: biotinylated, site not given here).
T7 construct: mask peptide for the CD3 scFv
T7 peptide: SECLVDLQSDPCYW
Briefly: ELISA, TCE on captured biotin-peptide.

In test [7] the target is T8, Peptide-71 (cysteine pairing not given here; also: biotinylated, site not given here).
T8 construct: mask peptide for the CD3 scFv
T8 peptide: VDCGPDGDESILCY
Briefly: ELISA, TCE on captured biotin-peptide.

Test [8] concerns the target T9, Peptide-72 (cysteine pairing not given here; also: biotinylated, site not given here).
T9 construct: mask peptide for the CD3 scFv
T9 peptide: AYCGPEFDESVGCM
Briefly: ELISA, TCE on captured biotin-peptide.

Test [9] concerns the target T10, Peptide-74 (cysteine pairing not given here; also: biotinylated, site not given here).
T10 construct: mask peptide for the CD3 scFv
T10 peptide: ASQCLGPEWEVCPY
Briefly: ELISA, TCE on captured biotin-peptide.

Test [10] deals with T11, Peptide-75 (cysteine pairing not given here; also: biotinylated, site not given here).
T11 construct: mask peptide for the CD3 scFv
T11 peptide: GSACLGPEWEVCPY
Briefly: ELISA, TCE on captured biotin-peptide.

For test [11], the target named is T12, CD3 (biotinylated CD3 antigen) (human, UniProt P07766 23-126, limits assumed, biotinylated (site not stated)).
T12 construct: also called CD3ε; human CD3
Briefly: ELISA, TCE on captured biotin-CD3.

The target of test [12] is T13, Peptide-66 (cysteine pairing not given here; also: biotinylated, site not given here).
T13 construct: mask peptide for the CD3 scFv
T13 peptide: GSQCLGPEWEVCPY
Briefly: ELISA, TCE on captured biotin-peptide.

The target in test [13] is T12, CD3 (biotinylated CD3 antigen). Briefly: ELISA, TCE on captured biotin-CD3. The source holds these as a separate data set.
Test [14] deals with T13, Peptide-66. Briefly: ELISA, TCE on captured biotin-peptide.
The target of the next test is T14, Peptide-67 (cysteine pairing not given here; also: biotinylated, site not given here).
T14 construct: mask peptide for the CD3 scFv
T14 peptide: VYCGPEFDESVGCM
Briefly: ELISA, TCE on captured biotin-peptide.

The target in test [15] is T6, Peptide-68. Briefly: ELISA, TCE on captured biotin-peptide.
Test [16] addresses T7, Peptide-69. Briefly: ELISA, TCE on captured biotin-peptide.
Test [17] concerns the target T8, Peptide-71. Briefly: ELISA, TCE on captured biotin-peptide.
For test [18], the target named is T9, Peptide-72. Briefly: ELISA, TCE on captured biotin-peptide.
The target in a further test is T15, Peptide-73 (cysteine pairing not given here; also: biotinylated, site not given here).
T15 construct: mask peptide for the CD3 scFv
T15 peptide: VYCGPEFDESVGCA
Briefly: ELISA, TCE on captured biotin-peptide.

For test [19], the target named is T10, Peptide-74. Briefly: ELISA, TCE on captured biotin-peptide.
Test [20] addresses T11, Peptide-75. Briefly: ELISA, TCE on captured biotin-peptide.
Test [21] addresses T12, CD3 (biotinylated CD3 antigen). Briefly: ELISA: biotinylated CD3 captured on neutravidin plates, TCE titrated, HRP secondary antibody.
Test [22] concerns the target T16, TCE-37 (anti-CD3 scFv F104A; anti-TROP2 F108A).
T16 construct: scFv on the Fab heavy chain
Briefly: competition ELISA, TCE on captured CD3.

These results are taken from patent US20230357429A1 (JANUX THERAPEUTICS, published 2023).

Changes are numbered by the printed parent chain. In names and notes the source's numbering stands. Where two headings read alike, the source gives them in different places. Where no end group is shown, it is not given here.

For the molecule LDFCKLYQWPVCFT [Peptide-15], in the test with TBD-1 wt, the binding result is on record as “binds”.

B1: PC-2 (bispecific antibody)
light: GGIDFCMLYNWPICAGGGGGSSGGSAAGLLAPPGGLSGRSDAGGGGSDIQLTQSPSSLSASVGDRVSITCKASQDVSIAVAWYQQKPGKAPKLLIYSASYRYTGVPDRFSGSGSGTDFTLTISSLQPEDFAVYYCQQHYITPLTFGAGTKVEIKRTVAAPSVFIFPPSDEQLKSGTASVVCLLNNFYPREAKVQWKVDNALQSGNSQESVTEQDSKDSTYSLSSTLTLSKADYEKHKVYACEVTHQGLSSPVTKSFNRGEC
heavy: not shown
notes: anti-TROP2 wt
For orientation: EC50 means the concentration at which the effect is half-maximal. High values mean a less potent agent, low ones a more potent agent. For B1, in [1], the response was half-maximal at 78.5 nM (EC50).

B2: PC-3 (bispecific antibody)
light: B1 light with I3V, M7K, L8I, N10S, I13V, A15H, G16Q
heavy: not shown
notes: anti-TROP2 wt
In turn, B2 came in with an EC50 in test [1] of 64.6 nM.
For the molecule VDFCALYNWPVCET [Peptide-11], the binding result with TBD-1 wt was “binds”.

B3: PC-4 (bispecific antibody)
light: not shown
heavy: GGIDFCMLYNWPICAGGGGGSSGGSAAGLLAPPGGLSGRSDAGGGGSQVQLQQSGSELKKPGASVKVSCKASGYTFTNYGMNWVKQAPGQGLKWMGWINTYTGEPTYTDDFKGRFAFSLDTSVSTAYLQISSLKADDTAVYFCARGGFGSSYWYFDVWGQGSLVTVSSASTKGPSVFPLAPSSKSTSGGTAALGCLVKDYFPEPVTVSWNSGALTSGVHTFPAVLQSSGLYSLSSVVTVPSSSLGTQTYICNVNHKPSNTKVDKKVEPKSC
notes: anti-TROP2 wt
In turn, B3 yielded a half-maximal effective concentration (EC50) in [1] of 32.8 nM.

B4: PC-8 (bispecific antibody)
light: GGVDFCGLYHWPICYQGGGGSGGLSGRSDAGSPLGLAGSGGSDIQLTQSPSSLSASVGDRVSITCKASQDVSIAVAWYQQKPGKAPKLLIYSASYRYTGVPDRFSGSGSGTDFTLTISSLQPEDFAVYYCQQHYITPLTFGAGTKVEIKRTVAAPSVFIFPPSDEQLKSGTASVVCLLNNFYPREAKVQWKVDNALQSGNSQESVTEQDSKDSTYSLSSTLTLSKADYEKHKVYACEVTHQGLSSPVTKSFNRGEC
heavy: not shown
notes: Masked polypeptide complex: anti-TROP2 D109A, anti-CD3 wt
Regarding B4, the “H292 Cytotoxicity EC50 (pM)” value with Human TROP2 Full length stood at 14600 pM. The “HCT116 Cytotoxicity EC50 (pM)” value with Human TROP2 Full length was above 100000 pM. Moreover, in the test with Cyno TROP2 Full length, the “CyTROP2 HEK293 EC50 (pM)” value worked out at 3450 pM. Moreover, the EC50 in test [2] stood at 187 nM; in test [3] it was 86 nM; in test [4], 165 nM.
For the molecule VDFCYLYNWPVCSK [Peptide-9], the binding result with TBD-1 wt is on record as “binds”.

B5: TCE-11 (anti-CD3 scFv H101A; anti-TROP2 wt) (bispecific antibody)
light: DIQLTQSPSSLSASVGDRVSITCKASQDVSIAVAWYQQKPGKAPKLLIYSASYRYTGVPDRFSGSGSGTDFTLTISSLQPEDFAVYYCQQHYITPLTFGAGTKVEIKRTVAAPSVFIFPPSDEQLKSGTASVVCLLNNFYPREAKVQWKVDNALQSGNSQESVTEQDSKDSTYSLSSTLTLSKADYEKHKVYACEVTHQGLSSPVTKSFNRGEC
heavy: not shown
notes: scFv on the Fab heavy chain; also called TCE-11 (H101A)
As for B5, the EC50 stood at 6.92 nM with Peptide-65; 60.9 nM in the test with Peptide-68 [5]; 6.94 nM with Peptide-69 [6]; 1.28 nM with Peptide-71 [7]; 1.36 nM with Peptide-72 [8]; 0.83 nM with Peptide-74 [9]. The same molecule came in with an EC50 with Peptide-75 [10] of 1.05 nM.

B6: TCE-13 (anti-CD3 scFv N103A; anti-TROP2 wt) (bispecific antibody)
light: B5 light
heavy: not shown
notes: scFv on the Fab heavy chain; also called TCE-13 (N103A)
Consider B6, for which the 50% effective concentration (EC50) in test [11] was 1.69 nM; with Peptide-65, 2.71 nM; with Peptide-69 [6], 1.69 nM; with Peptide-71 [7], 0.34 nM; with Peptide-74 [9], 0.36 nM.

B7: TCE-14 (anti-CD3 scFv F104A; anti-TROP2 wt) (bispecific antibody)
light: B5 light
heavy: not shown
notes: scFv on the Fab heavy chain; also called TCE-14 (F104A)
Turning to B7, the EC50 worked out at 0.83 nM in [11]; 1.52 nM with Peptide-65; 0.63 nM with Peptide-66 [12]; 1.93 nM in the test with Peptide-69 [6]; 0.66 nM in the test with Peptide-74 [9]; 0.88 nM with Peptide-75 [10].

B8: TCE-33 (anti-CD3 scFv F240A; anti-TROP2 wt) (bispecific antibody)
light: B5 light
heavy: not shown
notes: scFv on the Fab heavy chain; also called TCE-33 (F240A)
In the case of B8, the EC50 in test [13] was determined as 1.24 nM; with Peptide-66 [14], 8.02 nM; with Peptide-67 it was 5.78 nM; in the test with Peptide-68 [15], 7.71 nM; in the test with Peptide-69 [16], 0.76 nM; with Peptide-71 [17] it was 21.7 nM. The EC50 stood at 5.78 nM with Peptide-72 [18]; 8.15 nM with Peptide-73; 5.9 nM in the test with Peptide-74 [19]; 9.2 nM in the test with Peptide-75 [20]; 0.601 nM in [21].

B9: TCE-35 (anti-CD3 scFv N30Q, I109V, G172A, V231A; anti-TROP2 wt) (bispecific antibody)
light: B5 light
heavy: not shown
notes: scFv on the Fab heavy chain
On to B9, for which the EC50 in [21] was determined as 0.171 nM.
Broadly, the IC50 is the point on the concentration scale where inhibition reaches its midpoint. The low end stands for greater potency, the high end for weaker potency. YLCGPDTDETLACY (cysteine pairing not given here; also: biotinylated, site not given here, mask peptide for the CD3 scFv) [Peptide-77] returned an IC50 in test [22] of 8.87 µM.
